Test results: patent US20240117054A1 (DRAGONFLY THERAPEUTICS, published 2024)

Experiments:
human NKG2D = biological target: T1, human NKG2D (human, UniProt P26718 78-216, limits assumed); assay: assay not described
T1 sequence (looked up): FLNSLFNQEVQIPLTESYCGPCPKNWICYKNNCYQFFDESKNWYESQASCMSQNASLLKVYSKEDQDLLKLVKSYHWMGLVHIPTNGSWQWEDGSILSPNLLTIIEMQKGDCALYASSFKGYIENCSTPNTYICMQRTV

hFLT3-His fusion protein = biological target: T2, hFLT3-His fusion protein (human, UniProt P36888 27-541, limits assumed); assay: SPR, purified murine subclone, hFLT3-His, 1:1 binding fit
T2 construct: Soluble recombinant antigen used for immunisation, ELISA, SPR and BLI binning; also called recombinant hFLT3 protein; not shown: His tag
T2 sequence (looked up): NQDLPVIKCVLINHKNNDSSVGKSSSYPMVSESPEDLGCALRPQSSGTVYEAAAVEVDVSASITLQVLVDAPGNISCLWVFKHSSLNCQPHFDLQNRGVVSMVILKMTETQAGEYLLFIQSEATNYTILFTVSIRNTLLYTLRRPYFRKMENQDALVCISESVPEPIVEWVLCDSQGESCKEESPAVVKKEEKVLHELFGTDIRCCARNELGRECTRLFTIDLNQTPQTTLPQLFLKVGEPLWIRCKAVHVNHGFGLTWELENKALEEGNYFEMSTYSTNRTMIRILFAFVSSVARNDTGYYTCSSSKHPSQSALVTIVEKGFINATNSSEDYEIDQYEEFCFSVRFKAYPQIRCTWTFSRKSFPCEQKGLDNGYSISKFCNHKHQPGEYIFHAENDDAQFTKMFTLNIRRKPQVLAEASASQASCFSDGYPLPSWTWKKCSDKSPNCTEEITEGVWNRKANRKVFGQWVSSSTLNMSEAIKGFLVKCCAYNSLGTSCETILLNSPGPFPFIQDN

Binder	binding result (human NKG2D)	binding result (hFLT3-His fusion protein)
F3′-1158 dead-2D (bispecific antibody, human IgG1, kappa, also called first variant) DIVMTQSPDSLAVSLGERATINCRASESVDTYGSSFVHWYQQKPGQPPKLLIYLASNLESGVPDRFSGSGSGTDFTLTISSLQAEDVAVYYCQQNNEEPWTFGCGTKVEIKGGGGSGGGGSGGGGSGGGGSQVQLVQSGAEVKKPGASVKVSCKASGYTFTRYVMHWVRQAPGQCLEWMGFINPYNDDTKYNEKFKGRVTITRDTSASTAYMELSSLRSEDTAVYYCARWRQLGSLDSWGQGTTVTVSSGSDKTHTCPPCPAPELLGGPSVFLFPPKPKDTLMISRTPEVTCVVVDVSHEDPEVKFNWYVDGVEVHNAKTKPREEQYNSTYRVVSVLTVLHQDWLNGKEYKCKVSNKALPAPIEKTISKAKGQPREPRVYTLPPCRDELTKNQVSLTCLVKGFYPSDIAVEWESNGQPENNYKTTPPVLVSDGSFTLYSKLTVDKSRWQQGNVFSCSVMHEALHNHYTQKSLSLSPG heavy: EVQLVESGGGLVKPGGSLRLSCAASGFTFSSYSMNWVRQAPGKGLEWVSSISSSSSYIYYADSVKGRFTISRDNAKNSLYLQMNSLRAEDTAVYYCARGAPIGAAAGWFDPWGQGTLVTVSSASTKGPSVFPLAPSSKSTSGGTAALGCLVKDYFPEPVTVSWNSGALTSGVHTFPAVLQSSGLYSLSSVVTVPSSSLGTQTYICNVNHKPSNTKVDKKVEPKSCDKTHTCPPCPAPELLGGPSVFLFPPKPKDTLMISRTPEVTCVVVDVSHEDPEVKFNWYVDGVEVHNAKTKPREEQYNSTYRVVSVLTVLHQDWLNGKEYKCKVSNKALPAPIEKTISKAKGQPREPQVCTLPPSRDELTENQVSLTCLVKGFYPSDIAVEWESNGQPENNYKTTPPVLDSDGSFFLYSWLTVDKSRWQQGNVFSCSVMHEALHNHYTQKSLSLSPG light: DIQMTQSPSTLSASVGDRVTITCRASNSISSWLAWYQQKPGKAPKLLIYEASSTKSGVPSRFSGSGSGTEFTLTISSLQPDDFATYYCQQYDDLPTFGGGTKVEIKRTVAAPSVFIFPPSDEQLKSGTASVVCLLNNFYPREAKVQWKVDNALQSGNSQESVTEQDSKDSTYSLSSTLTLSKADYEKHKVYACEVTHQGLSSPVTKSFNRGEC	no binding	
14H8.E7 (antibody, V domains shown) VH: EVQLQESGAELVKPGASVKLSCKASGYTFTNYWINWLKQRPGQGLEWIGNIYPGSTIINYNEKFKNKATLTVDTSSSTAYMQLSSLTSDDSAVYYCARRVVYLYFDSWGQGTTLTVSS VL: QIVLTQSPAIMSASPGEKVTMTCSASSSVSYMHWYQQKSGTSPKRWIFDTSKLASGVPVRFSGSGSGTSYSLTITNMETEDAATYYCQQWSSKSPTFGGGTKLEIK		binds
